Measured values: publication PMC6180082, “Structural Analysis of an Epitope Candidate of Triosephosphate Isomerase in Opisthorchis viverrini” (Scientific Reports, 2018)

Molecular target: the molecule itself
Test: crystal structure; OvTIM wild-type at ~80 mg/ml, hanging-drop vapor diffusion, 0.3 M magnesium chloride hexahydrate, 0.1 M Tris pH 8.5, 22% PEG 3350, 20 °C; molecular replacement; two homodimers in the asymmetric unit

B1: Triosephosphate isomerase from Opisthorchis viverrini (OvTIM), wild-type (enzyme)
chain: MPTDRKFFVGGNWKMNGSKKENDKLIEMLTHAKIDPNTEVLVAPPSLYLPSVREKLDKRFHVAAQNCYKVPSGAFTGEVSPAMLKDVGCDWVILGHSERRHILMETDQLVGEKTNHAISAGVNVIACIGEKLEEREAGKTEEVCFRQMEAIRKNLSSADMWNHIVIAYEPVWAIGTGKTATEQQAQEVHLAVRKWMEEKVSPAVANSIRIIYGGSVTAANCRTLAKQPDVDGFLVGGASLKPDFIEICNANA
notes: Triosephosphate isomerase (EC 5.3.1.1) of Opisthorchis viverrini; cDNA synthesized and cloned NdeI/XhoI into pET17b with a 6 His-tag and thrombin site; residues 175-179 have no clear electron density in the crystal; a thrombin site lies between tag and protein; source: E. coli BL21 (DE3) pLysS, purified (HisTrap HP, HiTrap Q HP, Superdex-200 SEC)
binding result: binds
